According to publication doi:10.1101/2022.07.28.501822:

Target: integrin beta1 (SinoBiological 10587-H08H1) (UniProt P05556 21-728)
Test: fluorescence polarization

integrin beta1 (SinoBiological 10587-H08H1), sequence (P05556 21-728): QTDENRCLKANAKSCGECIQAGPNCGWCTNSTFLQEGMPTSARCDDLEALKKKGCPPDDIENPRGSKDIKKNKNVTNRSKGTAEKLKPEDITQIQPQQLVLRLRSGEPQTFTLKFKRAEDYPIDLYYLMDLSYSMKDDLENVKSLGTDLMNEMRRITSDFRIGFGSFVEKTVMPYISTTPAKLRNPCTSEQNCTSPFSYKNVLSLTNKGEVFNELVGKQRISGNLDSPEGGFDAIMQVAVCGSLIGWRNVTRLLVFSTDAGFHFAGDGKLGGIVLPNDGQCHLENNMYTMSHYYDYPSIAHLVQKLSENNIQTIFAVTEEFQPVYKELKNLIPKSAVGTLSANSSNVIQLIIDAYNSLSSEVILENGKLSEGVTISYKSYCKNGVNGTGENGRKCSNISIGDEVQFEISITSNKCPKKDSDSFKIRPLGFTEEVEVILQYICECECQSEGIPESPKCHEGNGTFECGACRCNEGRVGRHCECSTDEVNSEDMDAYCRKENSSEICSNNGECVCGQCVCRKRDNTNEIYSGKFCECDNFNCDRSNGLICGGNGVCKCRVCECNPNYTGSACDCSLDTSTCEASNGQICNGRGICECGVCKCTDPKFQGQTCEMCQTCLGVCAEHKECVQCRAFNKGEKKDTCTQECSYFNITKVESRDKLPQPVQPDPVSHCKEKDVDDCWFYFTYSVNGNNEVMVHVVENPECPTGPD

B1: FAM-GreenB1 (ssDNA)
DNA: ATCCAGAGTGACGCAGCATGGGGGTAGTGGTGGTTAGGAGTGGAGGCGAGGAGAGCGGTGGACACGGTGGCTTAGT
  Kd: 7 nM
